Reference: patent publication US20260137779A1

Columns and labels:
[1] = molecular target: human CD3 on T (Jurkat) cells (human) (UniProt P07766); test: flow cytometry; PerCP-anti-hCD3e (OKT3) staining of Jurkat cells; supernatant of vector #1323, which lacks a secretion peptide (dimert not secreted)
[2] = molecular target: human CD3 on T (Jurkat) cells (human) (UniProt P07766); test: flow cytometry; PerCP-anti-hCD3e (OKT3) staining of Jurkat cells; supernatant of untransfected 293T cells, no competitor
[3] = molecular target: human CD3 on T (Jurkat) cells (human) (UniProt P07766); test: flow cytometry; PerCP-anti-hCD3e (OKT3) staining of Jurkat cells; supernatant of vector #1104, which lacks a secretion peptide (dimert not secreted)
[4] = molecular target: human CD3 on T (Jurkat) cells (human) (UniProt P07766); test: flow cytometry; PerCP-anti-hCD3e (OKT3) staining of Jurkat cells; supernatant of GFP-transfected 293T cells (same control values as in paragraph 403)
[5] = molecular target: human CD3 on T (Jurkat) cells (human) (UniProt P07766); test: flow cytometry; PerCP-anti-hCD3e (OKT3) staining of Jurkat cells; supernatant of GFP-transfected 293T cells, no competitor
[6] = molecular target: human CD3 on T (Jurkat) cells (human) (UniProt P07766); test: flow cytometry; PerCP-anti-hCD3e (OKT3) staining of Jurkat cells; media alone, no competitor (same control values as in paragraph 403)
[7] = molecular target: human CD3 on T (Jurkat) cells (human) (UniProt P07766); test: flow cytometry; PerCP-anti-hCD3e (OKT3) staining of Jurkat cells; supernatant of untransfected 293T cells (same control values as in paragraph 403)
[8] = molecular target: human CD3 on T (Jurkat) cells (human) (UniProt P07766); test: flow cytometry; PerCP-anti-hCD3e (OKT3) staining of Jurkat cells; media alone, no competitor

How did the % CD3 positive (Q2+Q3) [1] turn out when PerCP-anti-hCD3e antibody (#OKT3) was run?
The % CD3 positive (Q2+Q3) was 79.4%.

And the % CD3 positive (Q2+Q3) [2]?
The % CD3 positive (Q2+Q3) was 79.2%.

And the % CD3 positive (Q2+Q3) [3]?
The % CD3 positive (Q2+Q3) was 77.7%.

And the % CD3 positive (Q2+Q3) [4]?
Its % CD3 positive (Q2+Q3) is 78.7%.

And the % CD3 positive (Q2+Q3) [5]?
Its % CD3 positive (Q2+Q3) is 78.7%.

And the % CD3 positive (Q2+Q3) [6]?
Its % CD3 positive (Q2+Q3) is 77.6%.

What about the % CD3 positive (Q2+Q3) [7] of the same substance?
Its % CD3 positive (Q2+Q3) is 79.2%.

What about the % CD3 positive (Q2+Q3) [8] of the same substance?
Its % CD3 positive (Q2+Q3) is 77.6%.
